The target in data set [1] is T1, Rif1 full-length (His6-Rif1-FLAG3) (Schizosaccharomyces pombe (fission …, UniProt Q96UP3 1-1400)).
T1 sequence: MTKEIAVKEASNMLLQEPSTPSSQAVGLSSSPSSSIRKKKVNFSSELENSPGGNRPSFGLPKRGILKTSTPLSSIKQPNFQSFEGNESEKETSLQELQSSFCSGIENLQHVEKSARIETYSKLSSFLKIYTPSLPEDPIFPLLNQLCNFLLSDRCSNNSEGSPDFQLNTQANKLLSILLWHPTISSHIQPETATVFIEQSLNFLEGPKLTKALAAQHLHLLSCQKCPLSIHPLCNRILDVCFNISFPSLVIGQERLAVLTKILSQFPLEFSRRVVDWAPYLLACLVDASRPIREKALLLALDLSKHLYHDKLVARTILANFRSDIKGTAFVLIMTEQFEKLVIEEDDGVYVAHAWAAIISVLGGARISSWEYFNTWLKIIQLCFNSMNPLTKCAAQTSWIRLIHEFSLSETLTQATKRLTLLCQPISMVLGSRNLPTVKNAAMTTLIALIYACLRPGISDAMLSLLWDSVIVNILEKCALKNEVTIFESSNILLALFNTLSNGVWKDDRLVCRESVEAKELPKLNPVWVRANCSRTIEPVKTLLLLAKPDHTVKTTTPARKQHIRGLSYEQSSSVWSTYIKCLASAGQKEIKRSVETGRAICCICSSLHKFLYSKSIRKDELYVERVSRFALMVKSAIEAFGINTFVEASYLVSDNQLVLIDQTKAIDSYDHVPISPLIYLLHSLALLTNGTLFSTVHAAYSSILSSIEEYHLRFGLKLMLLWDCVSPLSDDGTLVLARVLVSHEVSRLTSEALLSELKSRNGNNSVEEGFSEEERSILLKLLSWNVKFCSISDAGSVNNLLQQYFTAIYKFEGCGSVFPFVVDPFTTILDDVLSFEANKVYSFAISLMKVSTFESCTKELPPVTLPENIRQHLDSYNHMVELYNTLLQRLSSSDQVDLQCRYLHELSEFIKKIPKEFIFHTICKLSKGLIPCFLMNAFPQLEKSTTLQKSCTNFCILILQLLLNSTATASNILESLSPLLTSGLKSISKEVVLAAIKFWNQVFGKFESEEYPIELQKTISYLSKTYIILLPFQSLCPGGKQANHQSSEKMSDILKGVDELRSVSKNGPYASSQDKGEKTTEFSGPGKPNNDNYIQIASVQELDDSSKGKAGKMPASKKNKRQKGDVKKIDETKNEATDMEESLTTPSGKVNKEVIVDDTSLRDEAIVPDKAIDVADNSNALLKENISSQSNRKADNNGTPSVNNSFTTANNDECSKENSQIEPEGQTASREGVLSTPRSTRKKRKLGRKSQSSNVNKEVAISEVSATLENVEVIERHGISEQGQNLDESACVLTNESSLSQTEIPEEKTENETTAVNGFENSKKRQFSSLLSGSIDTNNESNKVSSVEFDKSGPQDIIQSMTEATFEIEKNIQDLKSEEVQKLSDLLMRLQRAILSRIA
The experiment in a line: EMSA; as efficient as or slightly better than AGTGn; EMSA with oligos heat-denatured and renatured in 50 mM KCl/40% PEG200 (Fig 5: 50 mM Tris-HCl pH 7.5 with KCl, NaCl or none); gel shift buffer 40 mM Hepes-KOH pH 7.6, 50 mM KCl, 1 mM EDTA, 10% glycerol, 0.01% Triton X-100; pull-down 30 min at room temperature; +++/++/+ = >50/>16/>6% shift at 1 nM Rif1. The settings on record: protein: recombinant, tags: N-term His6, C-term FLAG3, label: 32P. On the technique in general: Mobility shift assays separate free from complexed probe on a gel.

For data set [2], the target named is T1, Rif1 full-length (His6-Rif1-FLAG3). Briefly: EMSA; KCl; EMSA with oligos heat-denatured and renatured in 50 mM KCl/40% PEG200 (Fig 5: 50 mM Tris-HCl pH 7.5 with KCl, NaCl or none); gel shift buffer 40 mM Hepes-KOH pH 7.6, 50 mM KCl, 1 mM EDTA, 10% glycerol, 0.01% Triton X-100; pull-down 30 min at room temperature; +++/++/+ = >50/>16/>6% shift at 1 nM Rif1. The settings on record: protein: recombinant, tags: N-term His6, C-term FLAG3, label: 32P.

The target is the same in data set [3]. The experiment in a line: EMSA; KCl; three repeats most efficient; EMSA with oligos heat-denatured and renatured in 50 mM KCl/40% PEG200 (Fig 5: 50 mM Tris-HCl pH 7.5 with KCl, NaCl or none); gel shift buffer 40 mM Hepes-KOH pH 7.6, 50 mM KCl, 1 mM EDTA, 10% glycerol, 0.01% Triton X-100; pull-down 30 min at room temperature; +++/++/+ = >50/>16/>6% shift at 1 nM Rif1. The settings on record: protein: recombinant; tags: N-term His6, C-term FLAG3; label: 32P.

Turning to ACAGGGG (structured_DNA), the binding result in data set [1] is “binds”.
Regarding ACAGGGGACAGGGGACAGGGG (structured_DNA) [(ACAGGGG)3], the binding result in data set [1] was “binds”.
With TAGGGAGGGTTAGGGTTAGGG (structured_DNA) [Htelo1_A], in data set [2] (hybrid or mix G4), the binding result was “no binding”.
AGTGGGGAGTGGGG (structured_DNA) [(AGTGGGG)2]: the binding result in data set [2] is “binds”.
Turning to GGGGTGGGAGGAGGGT (structured_DNA) [93del], the binding result in data set [2] (parallel G4 (dimeric)) is “binds”.
As for ACAGGGGGACAGGGGGACAGGGGG (structured_DNA) [(ACAGGGGG)3], the binding result in data set [1] is listed as “binds”.
As to AGGGTTAGGGAGGGAGGGTGG (structured_DNA) [CEB1_TTA], the binding result in data set [2] (parallel G4 in KCl) is “binds”.
Take AGTGGGAGTGGGAGTGGG (structured_DNA) [(AGTGGG)3]: in data set [3], the binding result was “binds”.
For AGTGGGGGAGTGGGGG (structured_DNA) [(AGTGGGGG)2], the binding result in data set [2] is “binds”.
For the molecule TTGGGGTGGGTGGGTGGGT (structured_DNA) [T95_2T_G], in data set [2] (parallel G4), the binding result is “no binding”.

B1: DX1 (dsDNA)
DNA 1: CGCGAATTCGCG
DNA 2: CGCGAATTCGCG
Turning to B1, in data set [2] (blunt, self-complementary), the binding result is “no binding”.
In the case of AGTGGG (ssDNA), the binding result in data set [2] was “no binding”.
As to AGTGGGGGAGTGGGGGAGTGGGGGAGTGGGGG (structured_DNA) [(AGTGGGGG)4], in data set [2], the binding result is “binds”.
As for TAGGGGGGTTAGGGTTAGGG (structured_DNA) [Htelo1_no_spacer], the binding result in data set [2] (parallel G4) was “binds”.
Consider TTGGGGGTGGGTGGGTGGGT (structured_DNA) [T95_2T_GG], for which, in data set [2] (parallel G4), the binding result is on record as “no binding”.
For AGGGTAGGGAGGGAGGGTGG (structured_DNA) [CEB1_TA], the binding result in data set [2] (parallel G4 in KCl) is “binds”.
Turning to AGGGCTAGGGCTAGGGCTAGGG (structured_DNA) [Htelo4], the binding result in data set [2] (antiparallel G4 (chair)) was “no binding”.
In the case of AGGGAGGGAGGGAGGGTGG (structured_DNA) [CEB1_A], in data set [2] (parallel G4), the binding result is recorded as “binds”.
For the molecule AGGGCTAGGGCTACTAGGGCTAGGG (structured_DNA) [Htelo4_3nt_spacer], in data set [2] (antiparallel G4), the binding result was “no binding”.
In the case of AGGGGGGAGGGAGGGTGG (structured_DNA) [CEB1], in data set [2] (parallel G4 (dimeric)), the binding result is recorded as “binds”.
Regarding AGGGCTAGGGCTACTAGGGGGG (structured_DNA) [Htelo4(GGGGGG)_3nt_spacer], in data set [2] (hybrid G4 in KCl, antiparallel in NaCl), the binding result is “binds”.

B2: Rif1-8 (70 nt) (structured_DNA)
DNA: GTGGGGGATGTGGGATAGACTATTTTAGACTTGAGACTGTGTATTCACTTAAAAGTGCTATGTGGGGGCA
Regarding B2, in data set [2] (parallel G4), the binding result is recorded as “binds”.
Take ACAGGGGG (structured_DNA): the binding result in data set [1] (slow-migrating multimers) is given as “binds”.
As for GGGTTAGGGTTAGGGTTAGGGT (structured_DNA) [Htelo3], in data set [2] (hybrid G4 in K+ (CD)), the binding result is reported as “no binding”.
Consider AGTGGGAGTGGGAGTGGGAGTGGG (structured_DNA) [(AGTGGG)4], for which the binding result in data set [2] is recorded as “binds”.
Turning to ATCTGAGAATCAGAT (structured_DNA) [DX2], in data set [2] (hairpin), the binding result is on record as “no binding”.
TTTTTTGAGAGAGAGAGAGAGAGAGAGAGA (ssDNA) [T6(GA)12]: in data set [2] (no G4), the binding result is given as “no binding”.
In the case of TAGGGTTAGGGTTAGGGGGG (structured_DNA) [Htelo1_no_spacer_2], the binding result in data set [2] (mix G4 in KCl, antiparallel in NaCl) is on record as “binds”.
On to TTGGGTTAGGGTTAGGGTTAGGGA (structured_DNA) [HT], for which, in data set [2] (hybrid G4), the binding result is listed as “no binding”.
AGGGGGGAGGGAGGGT (structured_DNA) [CEB1_deltaGG]: the binding result in data set [2] (parallel G4) is reported as “binds”.
On the same count and under the same terms, under TGAGGGTGGTGAGGGTGGGGA (structured_DNA) [Pu24T] stands “binds”.
Take AGTGGGAGTGGG (structured_DNA) [(AGTGGG)2]: in data set [2], the binding result is given as “binds”.
As to AGTGGGGAGTGGGGAGTGGGGAGTGGGG (structured_DNA) [(AGTGGGG)4], the binding result in data set [2] is recorded as “binds”.
For AGGGCTAGGGCTAGGGGGG (structured_DNA) [Htelo4(GGGGGG)], the binding result in data set [2] (hybrid G4) is reported as “binds”.

These data come from publication PMC6565636, “Rif1 promotes association of G-quadruplex (G4) by its specific G4 binding and oligomerization activities”.
